Data on three molecules can be found in paper PMC8800102.

Read-outs that look alike come from different tables or passages of the source.

Holding throughout (test): NMR titration
Series [1] concerns the target T1, Sds3 capped Tudor domain (CTD) (mouse, UniProt Q8BR65 250-326).
T1 sequence: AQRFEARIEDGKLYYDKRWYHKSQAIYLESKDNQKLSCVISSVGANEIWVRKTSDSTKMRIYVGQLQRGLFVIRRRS

Series [2] has as its target T1, Sds3 capped Tudor domain (CTD). The source holds these as a separate data set.
Series [3] shares this target. The source holds these as a separate data set.

In the case of TTGGGG (structured_DNA) [T2G4], the binding result in series [1] is on record as “binds”.

On to TGTGGTT (ssDNA) [SELEX 7mer motif], for which the binding result in series [2] is recorded as “no binding”. Take AACUGUCG (ssRNA) [random RNA 8mer]: the binding result in series [3] was “no binding”.
